In PMC9637154 (Communications Biology, 2022):

Target: T1, CoV2 Parental S-RBD fused with human Fc (SARS-CoV-2, UniProt P0DTC2)
T1 construct: also called Parental RBD; RBD-Fc
Test: BLI
Settings: both partners purified

B1: shACE2 N53A/N90A/N322A triple glycan deletant (domain or fragment)
chain: STIEEQAKTFLDKFNHEAEDLFYQSSLASWNYNTAITEENVQNMNNAGDKWSAFLKEQSTLAQMYPLQEIQALTVKLQLQALQQNGSSVLSEDKSKRLNTILNTMSTIYSTGKVCNPDNPQECLLLEPGLNEIMANSLDYNERLWAWESWRSEVGKQLRPLYEEYVVLKNEMARANHYEDYGDYWRGDYEVNGVDGYDYSRGQLIEDVEHTFEEIKPLYEHLHAYVRAKLMNAYPSYISPIGCLPAHLLGDMWGRFWTNLYSLTVPFGQKPNIDVTDAMVDQAWDAQRIFKEAEKFFVSVGLPAMTQGFWENSMLTDPGNVQKAVCHPTAWDLGKGDFRILMCTKVTMDDFLTAHHEMGHIQYDMAYAAQPFLLRNGANEGFHEAVGEIMSLSAATPKHLKSIGLLSPDFQEDNETEINFLLKQALTIVGTLPFTYMLEKWRWMVFKGEIPKDQWMKKWWEMKREIVGVVEPVPHDETYCDPASLFHVSNDYSFIRYYTRTLYQFQFQEALCQAAKHEGPLHKCDISNSTEAGQKLFNMLRLGKSEPWTLALENVVGAKNMNVRPLLNYFEPLFTWLKDQNKNSFVGWSTDWSPYADQSIK
notes: also called N53A/N90A/N322A triple deletant; N53A/N90A/N322 triple deletant
Kd: 254 nM
